Assay results as given in patent US20070025968A1, “Methods for selecting and producing T cell peptide epitopes and vaccines incorporating said selected epitopes” (priority 1996, published 2007).

B1: HBV surface 335 (peptide)
peptide: WLSLLVPFV
B2: HBV Pol 594-602 (peptide)
peptide: PLEEELPRL
B3: HPV16 E7 86-93 (peptide)
peptide: TLGIVCPI
B4: hepatitis B nucleocapsid peptide … (peptide)
peptide: FLPSDFFPSV
B5: HCVcore-132 (peptide)
peptide: DLMGYIPLV

Experiments:
Conditions in all cases: remark: other sources report otherwise
[1] = target: HLA-A*0201 on mild-acid treated JY cells (human); experiment: competition vs FL-reference peptide, JY cells
[2] = target: HLA-A*0201 on mild-acid treated JY cells (human)
[3] = target: HLA-A*0201 on mild-acid treated JY cells (human); experiment: competition vs FL-reference peptide, JY cells, 4°C 24 hr
[4] = target: HLA-A*0201 on mild-acid treated JY cells (human); experiment: competition vs FL-reference peptide, JY cells, 26°C 3 hr
[5] = target: HLA-A*0201 on mild-acid treated JY cells (human); experiment: competition vs FL-reference peptide, JY cells, 26°C 24 hr

| Binder | IC50 [1] [nM] | other results |
| --- | --- | --- |
| B1 | 1000 | – |
| B2 | – | HLA molecules detectable after 2 hr at 37°C (NS = non stable) [2]: < 10% |
| B3 | 700 | IC50 [3]: 700 nM; IC50 [4]: 6500 nM; IC50 [5]: 3100 nM |
| B4 | 400 | – |
| B5 | 5000 | – |
